PMC4807065

Molecular target: large catalase (CAT) from Aspergillus terreus MTCC 6324 (Aspergillus terreus MTCC 6324)
Assay: SEC; HiPrep Sephacryl S-300 HR column, 50 mM sodium phosphate buffer pH 7.5; native mass against gel filtration standards (29-669 kDa), compared with the subunit mass from SDS-PAGE

stoichiometry N: 4
Substance: large catalase (CAT) from Aspergillus terreus MTCC 6324 (enzyme)
